T1: Bacillus subtilis Smc protein (Bacillus subtilis, UniProt P51834 1-1186)
T1 sequence (looked up): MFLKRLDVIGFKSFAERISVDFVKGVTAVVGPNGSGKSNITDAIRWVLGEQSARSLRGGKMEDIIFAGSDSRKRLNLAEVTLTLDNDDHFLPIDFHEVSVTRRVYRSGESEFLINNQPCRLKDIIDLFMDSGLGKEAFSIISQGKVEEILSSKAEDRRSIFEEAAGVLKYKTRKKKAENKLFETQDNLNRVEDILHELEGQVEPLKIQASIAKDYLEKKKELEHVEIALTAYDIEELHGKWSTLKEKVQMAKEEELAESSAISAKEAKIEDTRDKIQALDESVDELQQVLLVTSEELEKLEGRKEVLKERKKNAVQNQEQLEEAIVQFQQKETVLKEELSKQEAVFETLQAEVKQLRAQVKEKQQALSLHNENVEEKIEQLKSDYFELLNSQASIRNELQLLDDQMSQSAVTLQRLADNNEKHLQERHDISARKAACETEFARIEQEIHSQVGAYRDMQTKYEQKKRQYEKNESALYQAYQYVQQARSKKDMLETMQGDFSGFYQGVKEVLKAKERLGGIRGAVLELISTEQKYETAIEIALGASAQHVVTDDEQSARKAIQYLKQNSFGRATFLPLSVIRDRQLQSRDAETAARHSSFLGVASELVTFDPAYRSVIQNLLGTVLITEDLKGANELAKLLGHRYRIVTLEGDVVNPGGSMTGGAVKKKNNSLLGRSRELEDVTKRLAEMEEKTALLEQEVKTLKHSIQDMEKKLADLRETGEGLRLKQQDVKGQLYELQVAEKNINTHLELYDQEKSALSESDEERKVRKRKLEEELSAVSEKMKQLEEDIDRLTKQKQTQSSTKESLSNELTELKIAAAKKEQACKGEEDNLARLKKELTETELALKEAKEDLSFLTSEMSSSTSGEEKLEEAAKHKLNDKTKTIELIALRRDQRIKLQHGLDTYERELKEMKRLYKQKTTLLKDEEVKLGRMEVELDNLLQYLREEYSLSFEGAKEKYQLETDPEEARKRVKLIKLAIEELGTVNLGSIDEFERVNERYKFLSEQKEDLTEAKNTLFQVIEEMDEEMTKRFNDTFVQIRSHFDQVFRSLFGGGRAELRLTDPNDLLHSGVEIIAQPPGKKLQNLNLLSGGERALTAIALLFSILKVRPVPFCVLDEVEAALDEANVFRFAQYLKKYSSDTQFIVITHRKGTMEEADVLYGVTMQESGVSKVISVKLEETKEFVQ

T2: BsSmcH (Bacillus subtilis, UniProt P51834 498-665)
T2 sequence: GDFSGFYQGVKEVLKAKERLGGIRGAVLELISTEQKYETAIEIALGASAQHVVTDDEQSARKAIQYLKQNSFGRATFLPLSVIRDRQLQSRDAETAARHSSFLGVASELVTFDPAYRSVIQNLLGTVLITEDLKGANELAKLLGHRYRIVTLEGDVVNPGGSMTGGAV

T3: BsSmcH-CC100 (Bacillus subtilis, UniProt P51834 400-776)
T3 sequence: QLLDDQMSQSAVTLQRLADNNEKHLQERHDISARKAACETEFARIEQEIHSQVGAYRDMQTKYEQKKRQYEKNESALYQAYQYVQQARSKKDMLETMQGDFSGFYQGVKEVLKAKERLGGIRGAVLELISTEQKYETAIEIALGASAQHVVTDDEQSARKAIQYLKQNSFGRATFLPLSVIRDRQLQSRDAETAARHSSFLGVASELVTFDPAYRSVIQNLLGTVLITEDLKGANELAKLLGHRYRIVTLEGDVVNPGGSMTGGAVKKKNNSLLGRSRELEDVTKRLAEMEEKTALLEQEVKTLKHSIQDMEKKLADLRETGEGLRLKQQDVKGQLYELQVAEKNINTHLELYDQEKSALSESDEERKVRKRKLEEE

T4: BsSmcH-CC8 (Bacillus subtilis, UniProt P51834 489-680)
T4 sequence: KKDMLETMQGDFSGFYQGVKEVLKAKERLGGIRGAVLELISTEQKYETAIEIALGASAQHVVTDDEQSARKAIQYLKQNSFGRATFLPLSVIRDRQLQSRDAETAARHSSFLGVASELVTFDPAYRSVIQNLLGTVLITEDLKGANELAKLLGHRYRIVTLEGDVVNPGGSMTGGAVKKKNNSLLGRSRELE

T5: Bs Smc (Bacillus subtilis, UniProt P51834 1-1186)
T5 sequence: T1 sequence (looked up)

T6: ScSmc2H-CC110;ScSmc4H-CC110 (Saccharomyces cerevisiae?;Saccharomyces …, UniProt P38989;Q12267 396-792;555-951, |)
T6 sequence 1: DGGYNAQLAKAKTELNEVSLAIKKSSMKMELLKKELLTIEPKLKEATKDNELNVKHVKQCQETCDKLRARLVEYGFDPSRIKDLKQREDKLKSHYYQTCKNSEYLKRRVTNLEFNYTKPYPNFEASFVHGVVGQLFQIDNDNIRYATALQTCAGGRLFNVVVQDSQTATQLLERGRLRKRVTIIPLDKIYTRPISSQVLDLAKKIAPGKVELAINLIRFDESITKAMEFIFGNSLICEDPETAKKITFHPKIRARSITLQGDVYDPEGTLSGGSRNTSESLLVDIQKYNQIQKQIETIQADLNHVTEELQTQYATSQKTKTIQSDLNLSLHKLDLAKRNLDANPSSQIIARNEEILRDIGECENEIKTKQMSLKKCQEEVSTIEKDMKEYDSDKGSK
T6 sequence 2: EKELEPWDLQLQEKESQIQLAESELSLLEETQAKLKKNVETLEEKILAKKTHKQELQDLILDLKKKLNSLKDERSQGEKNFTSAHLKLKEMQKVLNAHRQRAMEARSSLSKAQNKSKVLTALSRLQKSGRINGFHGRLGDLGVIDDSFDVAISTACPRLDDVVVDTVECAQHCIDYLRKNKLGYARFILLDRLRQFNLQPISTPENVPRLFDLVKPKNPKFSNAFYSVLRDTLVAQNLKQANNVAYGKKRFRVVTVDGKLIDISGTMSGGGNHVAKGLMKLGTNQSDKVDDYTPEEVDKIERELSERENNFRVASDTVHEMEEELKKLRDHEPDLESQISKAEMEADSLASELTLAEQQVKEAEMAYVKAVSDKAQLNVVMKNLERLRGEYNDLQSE

B1: Bacillus subtilis ScpA (natural protein, UniProt P35154 1-251, looked up)
chain: MEEYQVKIDTFEGPLDLLLHLINRLEIDIYDIPVAKITEQYLLYVHTMRVLELDIASEYLVMAATLLSIKSRMLLPKQEEELFEDELLEEEDPREELIEKLIEYRKYKDAAKDLKEREEERQKSFTKPPSDLSEYAKEVKQSEQKLSVTVYDMIGAFQKVLKRKKINRPMETTITRQDIPIEARMNEIVHSLKSRGTRINFMDLFPYEQKEHLVVTFLAVLELMKNQLVLIEQEHNFSDIYITGSESIHGA
B2: Bacillus subtilis ScpB (natural protein, UniProt P35155 1-197, looked up)
chain: MGLDIVNWKAIVEALLYAAGDEGLTKKQLLTVLEIEEPELNTIMADVADEYRGDTRGIELIEYADTYMLSTKKDFAPYLKKLIEVPSKGLSQASLEVLAIVSYKQPITRAEIEEIRGVKSERILHSLVAKALLCEVGRADGPGRAILYGTTPTFLEQFGLKTLDELPPLPENAEEDVLQEEADLFFENFNQTFEDIK
B3: ds40 (dsDNA)
DNA 1: TTAGTTGTTCGTAGTGCTCGTCTGGCTCTGGATTACCCGC
DNA 2: GCGGGTAATCCAGAGCCAGACGAGCACTACGAACAACTAA

Legend:
[1] = target: T1, Bacillus subtilis Smc protein; experiment: SEC-MALS
[2] = target: the molecule itself; experiment: SEC-MALS
[3] = target: B1; experiment: SEC-MALS
[4] = target: T2, BsSmcH; experiment: fluorescence anisotropy
[5] = target: T3, BsSmcH-CC100; experiment: fluorescence anisotropy
[6] = target: T4, BsSmcH-CC8; experiment: fluorescence anisotropy
[7] = target: T5, Bs Smc; experiment: fluorescence anisotropy
[8] = target: T6, ScSmc2H-CC110;ScSmc4H-CC110; experiment: fluorescence anisotropy

Binder | binding result [1] | binding result [2] | binding result [3] | binding result [4] | Kd [5] | Kd [6] | Kd [7] | Kd [8]
B1 | binds | – | – | – | – | – | – | –
B2 | binds | binds | binds | – | – | – | – | –
B3 | – | – | – | no binding | ~100 nM | ~200 nM | ~100 nM | ~50 nM
